Reference: article PMC10976854
“And” between values parts separate entries of the source, which are not always exact repeats. Identical values can stand only once.

Key:
[1] = molecular target: collagenase-cleaved xZP2-N2N3 (Xenopus); assay: SEC-MALS
[2] = molecular target: collagenase-cleaved xZP2-N2N3 (Xenopus); assay: native MS
[3] = molecular target: Xenopus egg exudate-cleaved xZP2-N2N3 (Xenopus); assay: SEC-MALS
[4] = molecular target: Xenopus egg exudate-cleaved xZP2-N2N3 (Xenopus); assay: native MS

Binder	stoichiometry N [1]	stoichiometry N [2]	stoichiometry N [3]	stoichiometry N [4]
collagenase-cleaved xZP2-N2N3 (domain or fragment, modifications not checked) chain 1: DEPGSSVVTCTKDSMTVRIPRTLSGFDDEIP chain 2: VAAPSFWDLEVKFTGQTSLLGMSEARQRGYQFSSDPYYLTVQASYSAFGLNVFNLENQRLYVADLRLVSQFGSPRISIDTPMICARDSPSCNSTHATVLIPFFGGVLTGINVNSVNIQLSSYSLQQHGITLDSRNGYRLYIKRSTLKGDRNDVLVLTFIYYGKTVPMLISLVCSGGSN	4	4	–	–
Xenopus egg exudate-cleaved xZP2-N2N3 (domain or fragment, modifications not checked) chain 1: DEPGSSVVTCTKDSMTVRIPRTLSGFDDEIP chain 2: VAAPSFWDLEVKFTGQTSLLGMSEARQRGYQFSSDPYYLTVQASYSAFGLNVFNLENQRLYVADLRLVSQFGSPRISIDTPMICARDSPSCNSTHATVLIPFFGGVLTGINVNSVNIQLSSYSLQQHGITLDSRNGYRLYIKRSTLKGDRNDVLVLTFIYYGKTVPMLISLVCSGGSN	–	–	4 and 2	2 and 4
